Our source for the self-cleavage values is the RNAGym collection of RNA variant scans (doi:10.7554/elife.90254).

The labels stand for the following.
B1: OR4K15 (parent)
chain: GUUAACGGUCAUAGGCCAUGGAAACUAGGAGCACCAUUUCGCUGCCAGUGAAGAAAUGAACAAAGAAAAUCUGGGCCAGGCAGGCAUCAAAAGAAAUAGUCUUGCGCUCAACCAGAAAGUCUGUAAUCAUUUUAAGGGUA

The data set covers variants of B1. Put plainly: self-cleavage, relative activity (ratio to wild type); higher = more cleavage; in vitro, sequencing; the parent is a self-cleaving ribozyme.
With A92C, the self-cleavage was 1.27.

In the case of A92G, the self-cleavage was determined as 1.15.

Turning to A92U, the self-cleavage was found to be 1.71.

Regarding U87C U108G, the self-cleavage was 0.02.

For the variant A94G A135G, the self-cleavage came out at 0.43.

A90G U100A: the self-cleavage was found to be 0.31.

For A90G U100C, the self-cleavage was 2.32.

In the case of A92G A134G, the self-cleavage was 0.98.

A89U U103A: the self-cleavage worked out at 1.09.

As to A89U U103C, the self-cleavage was determined as 1.12.

A89U A118G: the self-cleavage turned out to be 1.61.

Take A89U A118C: the self-cleavage is 0.7.

Turning to U87C U122C, the self-cleavage was 1.07.

Consider A91U A126U, for which the self-cleavage came out at 1.56.

As to A94U U102C, the self-cleavage is 1.36.

In the case of A92U U132C, the self-cleavage is 0.8.

Regarding A89U A116U, the self-cleavage was found to be 0.46.

In the case of A89G U120C, the self-cleavage is 0.65.

As for A90G U130C, the self-cleavage came to 0.87.

On to A92G U108G, for which the self-cleavage amounted to 0.02.

As to A92C G115A, the self-cleavage was found to be 0.36.

As to A90G A94U, the self-cleavage stood at 1.93.

As to A90G A94G, the self-cleavage came to 1.64.

Turning to A90U A111U, the self-cleavage is 0.11.

For A89G A95G, the self-cleavage is 1.87.

For the variant A90C, the self-cleavage amounted to 1.55.

On to A90U, for which the self-cleavage worked out at 1.96.

In the case of A90G, the self-cleavage worked out at 0.95.

For A92G U130C, the self-cleavage turned out to be 0.3.

As to G93A U102A, the self-cleavage worked out at 2.2.

On to A89G U122C, for which the self-cleavage was 1.03.

Take A92C U131C: the self-cleavage was 1.35.

As for A91U U100A, the self-cleavage was found to be 0.57.

Take A91U U100C: the self-cleavage is 2.82.

With A91G A92U, the self-cleavage turned out to be 1.43.

Turning to A91G A92C, the self-cleavage is 0.76.

On to A91G A92G, for which the self-cleavage came out at 0.51.

Take A94G A110G: the self-cleavage worked out at 0.13.

Consider U87G A140G, for which the self-cleavage came to 0.8.

Consider A89U, for which the self-cleavage was determined as 1.65.

On to A89G, for which the self-cleavage turned out to be 1.11.

With A89C, the self-cleavage worked out at 1.54.

Consider A91G G106A, for which the self-cleavage is 0.01.

On to A91U A94U, for which the self-cleavage is 1.87.

For A91C U132C, the self-cleavage was found to be 2.49.

Turning to A89U A110U, the self-cleavage came to 1.46.

A94G A125G: the self-cleavage came to 0.75.

Consider A90G A134G, for which the self-cleavage was 1.35.

With A90G A134U, the self-cleavage amounted to 1.49.

For A94G U131A, the self-cleavage is 0.74.

With A94G U131C, the self-cleavage was 0.66.

Consider C88A U102A, for which the self-cleavage came to 0.58.

For C88A U102C, the self-cleavage stood at 2.23.

Consider C88A A111G, for which the self-cleavage came out at 0.

For the variant A90G A116U, the self-cleavage is 0.5.

U87C U130G: the self-cleavage is 0.15.

Take A91G G104A: the self-cleavage was 0.02.

For U87A G137A, the self-cleavage was found to be 1.96.

Turning to A91U U132A, the self-cleavage was found to be 1.98.

On to A89U A140G, for which the self-cleavage was determined as 1.61.

For the variant U87G A125G, the self-cleavage amounted to 0.07.

A91G A96G: the self-cleavage amounted to 1.3.

A90G A125G: the self-cleavage came out at 0.23.

As to A94U A117G, the self-cleavage amounted to 1.95.

Consider A94U A117U, for which the self-cleavage amounted to 0.82.

For A90U A110G, the self-cleavage came out at 0.08.

Take A90U A110U: the self-cleavage came to 0.89.

With C88U A94G, the self-cleavage came out at 1.27.

With A89G U103C, the self-cleavage came out at 0.55.

As to A92G A94U, the self-cleavage was 2.13.

In the case of U87C U102G, the self-cleavage turned out to be 0.27.

Consider U87C U102A, for which the self-cleavage is 0.83.

Consider A94G A98U, for which the self-cleavage came out at 2.36.

Turning to A89G U100G, the self-cleavage came out at 2.03.

With A89G U100A, the self-cleavage is 0.5.

As for A91G G119U, the self-cleavage was determined as 0.81.

Consider A89G U124C, for which the self-cleavage was 0.93.

In the case of A94U A135U, the self-cleavage was determined as 1.75.

Take A94U U97G: the self-cleavage is 1.52.

Regarding A94U U97C, the self-cleavage came out at 1.31.

In the case of U87G, the self-cleavage came to 0.74.

Consider U87C, for which the self-cleavage came out at 0.94.

For A90U A117G, the self-cleavage is 1.99.

With A91G U131C, the self-cleavage is 1.07.

For the variant A94C A116C, the self-cleavage came out at 0.25.

As for U87A U120C, the self-cleavage came out at 1.28.

For the variant A91G U122G, the self-cleavage is 2.58.

For the variant A91G U122A, the self-cleavage came out at 0.96.

As for A90U U120A, the self-cleavage worked out at 1.85.

For A90U U120C, the self-cleavage stood at 1.63.

In the case of A94G U133C, the self-cleavage amounted to 2.11.

In the case of A90G U124C, the self-cleavage came out at 0.78.

In the case of A91U U103C, the self-cleavage is 0.51.

Consider A90G U122C, for which the self-cleavage was 0.65.

For the variant A89U A117U, the self-cleavage came out at 0.7.

Regarding A89U A117G, the self-cleavage is 2.46.

Consider A89U A135G, for which the self-cleavage was 1.53.

For the variant A94U U130C, the self-cleavage was found to be 1.01.

As to U87C A96G, the self-cleavage was 1.81.

As to U87C A96U, the self-cleavage was determined as 1.48.

With A92G G106U, the self-cleavage stood at 0.01.

In the case of A92G G106A, the self-cleavage stood at 0.02.

Turning to U87G U108C, the self-cleavage turned out to be 0.02.

Regarding A89U A91G, the self-cleavage was found to be 1.78.

For A91G A135U, the self-cleavage is 1.25.

In the case of A92G A116G, the self-cleavage turned out to be 0.44.

Turning to A92G A116U, the self-cleavage was 0.2.

For A92G A116C, the self-cleavage stood at 0.09.

For U87G U103C, the self-cleavage was determined as 0.22.

For A92G A96U, the self-cleavage turned out to be 1.84.

As for A92G A96G, the self-cleavage is 0.99.

For U87C G138A, the self-cleavage is 1.2.

For the variant A89C U139C, the self-cleavage is 1.52.

With A94C U131C, the self-cleavage is 0.24.

In the case of A92U A96G, the self-cleavage came out at 1.85.

As to A92G A110C, the self-cleavage is 0.26.

As to A89C A126U, the self-cleavage turned out to be 0.86.

As for A90G U131C, the self-cleavage worked out at 0.31.

As for A91C A96G, the self-cleavage came out at 1.39.

With A92U U127A, the self-cleavage stood at 1.77.

Turning to A89G A118C, the self-cleavage was found to be 0.01.

With A92U A116G, the self-cleavage was 0.99.

Consider A89U A129C, for which the self-cleavage was determined as 0.68.

Consider A89U A129G, for which the self-cleavage is 1.59.

A89G A94U: the self-cleavage is 0.86.

Consider A89G A94G, for which the self-cleavage amounted to 1.39.

Turning to A92G U124C, the self-cleavage amounted to 1.

With A89U A95G, the self-cleavage is 2.26.

Take A90G U127C: the self-cleavage stood at 0.13.

Consider A92U A126G, for which the self-cleavage was 1.18.

Take A94G U130G: the self-cleavage was determined as 1.09.

For A91G U100C, the self-cleavage came out at 2.19.

Take U87C A94G: the self-cleavage was found to be 1.04.

Consider U87C A94U, for which the self-cleavage is 1.37.

Consider A92G A111G, for which the self-cleavage was 0.02.

As to A92G U132C, the self-cleavage is 1.35.

With U87C A117G, the self-cleavage stood at 0.7.

Consider U87C A117C, for which the self-cleavage worked out at 0.

For the variant U87C U132C, the self-cleavage is 0.92.

Take G93U G123A: the self-cleavage was determined as 0.77.

Consider A94C U103C, for which the self-cleavage was determined as 0.38.

As to A89G A91U, the self-cleavage is 2.19.

In the case of A91U G138A, the self-cleavage worked out at 0.82.

On to U87C A114G, for which the self-cleavage is 0.43.

Turning to A91G A129G, the self-cleavage amounted to 0.58.

As for A94U U120C, the self-cleavage is 1.1.

For A89U U102A, the self-cleavage came to 0.98.

As to C88U A95G, the self-cleavage came out at 2.12.

Regarding A91G A94G, the self-cleavage came to 0.83.

In the case of A91G A94U, the self-cleavage is 1.02.

As for U87C G123C, the self-cleavage is 1.6.

For the variant U87C G123A, the self-cleavage is 1.78.

In the case of U87G A90G, the self-cleavage amounted to 0.82.

Consider A92G A135C, for which the self-cleavage stood at 0.84.

For A92G A135G, the self-cleavage was 1.48.

Turning to U87C A90C, the self-cleavage was 0.98.

As for U87C A90G, the self-cleavage is 0.3.

With A90U A125G, the self-cleavage was 0.8.

Turning to A92U A118U, the self-cleavage is 0.74.

On to A91U A117U, for which the self-cleavage stood at 1.15.

For the variant A95C, the self-cleavage came out at 1.06.

Turning to A89G A98U, the self-cleavage worked out at 2.15.

A90U A126U: the self-cleavage was determined as 0.98.

Turning to A92U A117G, the self-cleavage came to 2.08.

Regarding A90G A110G, the self-cleavage worked out at 0.1.

Turning to A89C A110G, the self-cleavage amounted to 0.18.

In the case of U87C U103G, the self-cleavage is 0.01.
